molecular target: T1, K11D2.4 (K11D2.4) (Caenorhabditis elegans) (UniProt G5EBU1)
T1 sequence: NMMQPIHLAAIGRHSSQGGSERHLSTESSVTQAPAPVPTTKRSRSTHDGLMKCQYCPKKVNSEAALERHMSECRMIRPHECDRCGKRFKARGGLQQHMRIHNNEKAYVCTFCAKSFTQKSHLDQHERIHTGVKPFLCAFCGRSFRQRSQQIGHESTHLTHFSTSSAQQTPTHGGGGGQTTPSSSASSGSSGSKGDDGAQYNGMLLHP

Row | Sequence | binding signal (PBM E-score (-0.5 to 0.5))
1 | AAAAAAAA (double strand) [8-mer AAAAAAAA] | 0.5
2 | AAAAAAAC (double strand) [8-mer AAAAAAAC] | 0.498
3 | AAAAAAAG (double strand) [8-mer AAAAAAAG] | 0.498
4 | AAAAAAAT (double strand) [8-mer AAAAAAAT] | 0.498
5 | AGAAAAAA (double strand) [8-mer AGAAAAAA] | 0.498
6 | ATAAAAAA (double strand) [8-mer ATAAAAAA] | 0.498
7 | CAAAAAAA (double strand) [8-mer CAAAAAAA] | 0.498
8 | GAAAAAAA (double strand) [8-mer GAAAAAAA] | 0.498
9 | TAAAAAAA (double strand) [8-mer TAAAAAAA] | 0.498

molecular target: T2, T22C8.4 (T22C8.4) (Caenorhabditis elegans) (UniProt Q22677)
T2 sequence: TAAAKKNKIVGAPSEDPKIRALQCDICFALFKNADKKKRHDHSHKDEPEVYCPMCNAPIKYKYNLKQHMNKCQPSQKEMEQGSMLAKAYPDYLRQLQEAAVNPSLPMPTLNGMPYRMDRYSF

Row | Sequence | binding signal (PBM E-score (-0.5 to 0.5))
10 | CCCTGCTA (double strand) [8-mer CCCTGCTA] | 0.486
11 | CCCTGCTC (double strand) [8-mer CCCTGCTC] | 0.479
12 | GCAGGGGA (double strand) [8-mer GCAGGGGA] | 0.495
13 | GCAGGGGC (double strand) [8-mer GCAGGGGC] | 0.498

molecular target: T3, Y53H1A.2 (Y53H1A.2) (Caenorhabditis elegans) (UniProt B1V8K4)
T3 sequence: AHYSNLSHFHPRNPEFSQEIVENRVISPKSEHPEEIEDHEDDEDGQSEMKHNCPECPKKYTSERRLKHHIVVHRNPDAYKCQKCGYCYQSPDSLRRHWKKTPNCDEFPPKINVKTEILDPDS

Row | Sequence | binding signal (PBM E-score (-0.5 to 0.5))
14 | ACCACCGC (double strand) [8-mer ACCACCGC] | 0.483
15 | CCACCACC (double strand) [8-mer CCACCACC] | 0.486
16 | CGACCACC (double strand) [8-mer CGACCACC] | 0.486
17 | CGGCCGAC (double strand) [8-mer CGGCCGAC] | 0.486
18 | CGGCCGCC (double strand) [8-mer CGGCCGCC] | 0.489
19 | CGGCCGGC (double strand) [8-mer CGGCCGGC] | 0.486
20 | CGGCGGCC (double strand) [8-mer CGGCGGCC] | 0.485
21 | CGGTCGGC (double strand) [8-mer CGGTCGGC] | 0.487
22 | CGGTCGTC (double strand) [8-mer CGGTCGTC] | 0.483
23 | CGGTGGGC (double strand) [8-mer CGGTGGGC] | 0.491
24 | CGGTGGTC (double strand) [8-mer CGGTGGTC] | 0.481
25 | GCGGCCGC (double strand) [8-mer GCGGCCGC] | 0.488
26 | GGTCGGCA (double strand) [8-mer GGTCGGCA] | 0.481
27 | GGTGGGCA (double strand) [8-mer GGTGGGCA] | 0.487

molecular target: T4, egrh-3 (Y94H6A.11) (Caenorhabditis elegans) (UniProt U4PLQ8)
T4 sequence: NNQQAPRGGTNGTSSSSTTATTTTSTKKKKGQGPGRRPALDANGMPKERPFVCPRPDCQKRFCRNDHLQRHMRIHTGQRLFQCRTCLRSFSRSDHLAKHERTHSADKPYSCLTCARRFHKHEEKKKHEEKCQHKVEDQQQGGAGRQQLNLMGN

Row | Sequence | binding signal (PBM E-score (-0.5 to 0.5))
28 | AAGGGGGG (double strand) [8-mer AAGGGGGG] | 0.495
29 | ACCCCCCC (double strand) [8-mer ACCCCCCC] | 0.497
30 | AGGGGGAG (double strand) [8-mer AGGGGGAG] | 0.493
31 | AGGGGGGA (double strand) [8-mer AGGGGGGA] | 0.493
32 | AGGGGGGG (double strand) [8-mer AGGGGGGG] | 0.498
33 | CCCCCCAC (double strand) [8-mer CCCCCCAC] | 0.495
34 | CCCCCCCA (double strand) [8-mer CCCCCCCA] | 0.496
35 | CCCCCCCC (double strand) [8-mer CCCCCCCC] | 0.5
36 | CCCCCCTC (double strand) [8-mer CCCCCCTC] | 0.497
37 | CCTCCCCC (double strand) [8-mer CCTCCCCC] | 0.496

molecular target: T5, lin-29 (W03C9.4) (Caenorhabditis elegans) (UniProt G5EGB2)
T5 sequence: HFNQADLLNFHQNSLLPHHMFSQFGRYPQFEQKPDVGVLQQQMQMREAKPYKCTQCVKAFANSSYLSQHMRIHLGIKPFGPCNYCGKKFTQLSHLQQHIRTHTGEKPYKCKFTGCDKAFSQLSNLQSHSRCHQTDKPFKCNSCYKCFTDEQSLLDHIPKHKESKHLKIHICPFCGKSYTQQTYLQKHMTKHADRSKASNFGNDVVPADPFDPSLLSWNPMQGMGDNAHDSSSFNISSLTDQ

Row | Sequence | binding signal (PBM E-score (-0.5 to 0.5))
38 | AAAAAAAA (double strand) [8-mer AAAAAAAA] | 0.499
39 | AAAAAAAC (double strand) [8-mer AAAAAAAC] | 0.497
40 | AAAAAAAG (double strand) [8-mer AAAAAAAG] | 0.495
41 | AAAAAAAT (double strand) [8-mer AAAAAAAT] | 0.496
42 | AAAAAACT (double strand) [8-mer AAAAAACT] | 0.495
43 | AGAAAAAA (double strand) [8-mer AGAAAAAA] | 0.494
44 | ATAAAAAA (double strand) [8-mer ATAAAAAA] | 0.498
45 | CAAAAAAA (double strand) [8-mer CAAAAAAA] | 0.496
46 | CATAAAAA (double strand) [8-mer CATAAAAA] | 0.494
47 | GAAAAAAA (double strand) [8-mer GAAAAAAA] | 0.495
48 | GCAAAAAA (double strand) [8-mer GCAAAAAA] | 0.494
49 | GTAAAAAA (double strand) [8-mer GTAAAAAA] | 0.494
50 | GTTTTTTA (double strand) [8-mer GTTTTTTA] | 0.494
51 | TAAAAAAA (double strand) [8-mer TAAAAAAA] | 0.498
52 | TATAAAAA (double strand) [8-mer TATAAAAA] | 0.494

molecular target: T6, ztf-19 (T27B1.2) (Caenorhabditis elegans) (UniProt Q22829)
T6 sequence: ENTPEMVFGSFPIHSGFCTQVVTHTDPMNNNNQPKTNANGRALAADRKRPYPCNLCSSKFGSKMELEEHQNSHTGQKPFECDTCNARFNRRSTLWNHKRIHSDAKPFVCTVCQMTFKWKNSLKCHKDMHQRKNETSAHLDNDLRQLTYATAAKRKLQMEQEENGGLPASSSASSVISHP

Row | Sequence | binding signal (PBM E-score (-0.5 to 0.5))
53 | AGTGTAAA (double strand) [8-mer AGTGTAAA] | 0.494
54 | AGTGTAAC (double strand) [8-mer AGTGTAAC] | 0.491
55 | AGTGTAAT (double strand) [8-mer AGTGTAAT] | 0.497
56 | ATTACAAC (double strand) [8-mer ATTACAAC] | 0.496
57 | ATTACACA (double strand) [8-mer ATTACACA] | 0.493
58 | CAGTGTAA (double strand) [8-mer CAGTGTAA] | 0.494
59 | CATTACAC (double strand) [8-mer CATTACAC] | 0.494
60 | CGTTGTAA (double strand) [8-mer CGTTGTAA] | 0.493
61 | CTTTACAC (double strand) [8-mer CTTTACAC] | 0.494
62 | GTGTAACA (double strand) [8-mer GTGTAACA] | 0.494
63 | GTGTAATA (double strand) [8-mer GTGTAATA] | 0.497
64 | TAGTGTAA (double strand) [8-mer TAGTGTAA] | 0.495
65 | TGTGTAAA (double strand) [8-mer TGTGTAAA] | 0.491

molecular target: T7, ztf-29 (Y66D12A.12) (Caenorhabditis elegans) (UniProt Q95Q03)
T7 sequence: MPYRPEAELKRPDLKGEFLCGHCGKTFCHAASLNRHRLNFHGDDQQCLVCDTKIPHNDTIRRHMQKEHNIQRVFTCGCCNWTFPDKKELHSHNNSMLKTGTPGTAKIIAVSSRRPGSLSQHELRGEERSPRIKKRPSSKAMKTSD

Row | Sequence | binding signal (PBM E-score (-0.5 to 0.5))
66 | AAAAGCTT (double strand) [8-mer AAAAGCTT] | 0.492
67 | AAGCTTGT (double strand) [8-mer AAGCTTGT] | 0.489

molecular target: T8, ztf-6 (W06H12.1) (Caenorhabditis elegans) (UniProt G5EC77)
T8 sequence: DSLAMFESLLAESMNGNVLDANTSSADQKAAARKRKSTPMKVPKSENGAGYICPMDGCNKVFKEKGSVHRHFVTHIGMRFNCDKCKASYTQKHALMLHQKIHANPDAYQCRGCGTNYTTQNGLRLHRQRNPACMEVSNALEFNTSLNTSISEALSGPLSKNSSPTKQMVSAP

Row | Sequence | binding signal (PBM E-score (-0.5 to 0.5))
68 | AATTTCAG (double strand) [8-mer AATTTCAG] | 0.493
69 | AGCTGAAA (double strand) [8-mer AGCTGAAA] | 0.491
70 | AGTTTCAG (double strand) [8-mer AGTTTCAG] | 0.496
71 | ATCTGAAA (double strand) [8-mer ATCTGAAA] | 0.492
72 | ATTTCAGA (double strand) [8-mer ATTTCAGA] | 0.491
73 | ATTTCAGC (double strand) [8-mer ATTTCAGC] | 0.492
74 | ATTTTCAG (double strand) [8-mer ATTTTCAG] | 0.493
75 | CGCTGAAA (double strand) [8-mer CGCTGAAA] | 0.49
76 | GCTGAAAA (double strand) [8-mer GCTGAAAA] | 0.492
77 | GCTGAAAC (double strand) [8-mer GCTGAAAC] | 0.495
78 | GGCTGAAA (double strand) [8-mer GGCTGAAA] | 0.491
79 | GTCTGAAA (double strand) [8-mer GTCTGAAA] | 0.495
80 | GTTTCAGA (double strand) [8-mer GTTTCAGA] | 0.494
81 | TCTGAAAA (double strand) [8-mer TCTGAAAA] | 0.492
82 | TGCTGAAA (double strand) [8-mer TGCTGAAA] | 0.494
